This data set concerns the molecule itself. In words: AUC; sedimentation velocity; native Phb and UV-Phb 0.75 mg/ml; 0.03 M Hepes, pH 6.8, 0.1 M NaCl; 20°C; rotor speed 52000 rpm; growing time (dose) of UV irradiation.

The text below walks through data of publication PMC5720721, “A thermal after-effect of UV irradiation of muscle glycogen phosphorylase b” (PLoS ONE, 2017).

B1: glycogen phosphorylase b from rabbit skeletal muscle (enzyme, UniProt P00489 1-843, looked up)
chain: MSRPLSDQEKRKQISVRGLAGVENVTELKKNFNRHLHFTLVKDRNVATPRDYYFALAHTVRDHLVGRWIRTQQHYYEKDPKRIYYLSLEFYMGRTLQNTMVNLALENACDEATYQLGLDMEELEEIEEDAGLGNGGLGRLAACFLDSMATLGLAAYGYGIRYEFGIFNQKICGGWQMEEADDWLRYGNPWEKARPEFTLPVHFYGRVEHTSQGAKWVDTQVVLAMPYDTPVPGYRNNVVNTMRLWSAKAPNDFNLKDFNVGGYIQAVLDRNLAENISRVLYPNDNFFEGKELRLKQEYFVVAATLQDIIRRFKSSKFGCRDPVRTNFDAFPDKVAIQLNDTHPSLAIPELMRVLVDLERLDWDKAWEVTVKTCAYTNHTVLPEALERWPVHLLETLLPRHLQIIYEINQRFLNRVAAAFPGDVDRLRRMSLVEEGAVKRINMAHLCIAGSHAVNGVARIHSEILKKTIFKDFYELEPHKFQNKTNGITPRRWLVLCNPGLAEIIAERIGEEYISDLDQLRKLLSYVDDEAFIRDVAKVKQENKLKFAAYLEREYKVHINPNSLFDVQVKRIHEYKRQLLNCLHVITLYNRIKKEPNKFVVPRTVMIGGKAAPGYHMAKMIIKLITAIGDVVNHDPVVGDRLRVIFLENYRVSLAEKVIPAADLSEQISTAGTEASGTGNMKFMLNGALTIGTMDGANVEMAEEAGEENFFIFGMRVEDVDRLDQRGYNAQEYYDRIPELRQIIEQLSSGFFSPKQPDLFKDIVNMLMHHDRFKVFADYEEYVKCQERVSALYKNPREWTRMVIRNIATSGKFSSDRTIAQYAREIWGVEPSRQRLPAPDEKIP
notes: glycogen phosphorylase b, muscle form, rabbit skeletal muscle; Mr of the dimer printed as 194800 Da; also called Phb; intact Phb; source: purified from rabbit skeletal muscle
By stoichiometry N is commonly meant the number of molecules, sites or subunits per partner or assembly. As for B1, the “stoichiometry N” value was 2.
